Key:
huFcγRIIA R131 (human) = huFcγRIIA R131 (human) (UniProt P12318); test: SPR, Biacore T200
huFcγRIIIA F158 (human) = huFcγRIIIA F158 (human) (UniProt P08637); test: SPR, Biacore T200
[1] = biological target: recombinant mouse GITR (plate-bound) (mouse) (UniProt O35714); test: ELISA, plate-bound recombinant mouse GITR, absorbance 450 nm against log(conc. ug/ml)
[2] = biological target: human FcγRIIIA soluble ectodomain (ELISA) (human) (UniProt P08637); test: ELISA, plate-bound human FcgRIIIA (receptor named in the legend paragraph 150, not on the sheet), absorbance 450 nm against log(conc. ug/ml)
human FcγRIIB (human) [3] = biological target: human FcγRIIB (human) (UniProt P31994); test: SPR, Biacore T200
[4] = biological target: human FcγRIIIA soluble ectodomain (ELISA) (human) (UniProt P08637); test: ELISA, plate-bound human FcgRIIIA soluble ectodomain, absorbance 450 nm against log(conc. ug/ml)
human FcγRIIB (human) [5] = biological target: human FcγRIIB (human) (UniProt P31994); test: ELISA, plate-bound human FcgRIIB soluble ectodomain, absorbance 450 nm against log(conc. ug/ml)
[6] = biological target: recombinant mouse GITR (plate-bound) (mouse) (UniProt O35714); test: ELISA, plate-bound mGITR, antibody at ˜10^3 µg/ml as printed
[7] = biological target: recombinant mouse GITR (plate-bound) (mouse) (UniProt O35714); test: ELISA, plate-bound mGITR, plateau from ˜10-1.5 µg/ml as printed
[8] = biological target: recombinant mouse GITR (plate-bound) (mouse) (UniProt O35714); test: ELISA, plate-bound mouse GITR, delta OD against Log Ab con (ug/ml)

Chain of huFcγRIIA R131 (human) (P12318 36-218 H167R limits assumed): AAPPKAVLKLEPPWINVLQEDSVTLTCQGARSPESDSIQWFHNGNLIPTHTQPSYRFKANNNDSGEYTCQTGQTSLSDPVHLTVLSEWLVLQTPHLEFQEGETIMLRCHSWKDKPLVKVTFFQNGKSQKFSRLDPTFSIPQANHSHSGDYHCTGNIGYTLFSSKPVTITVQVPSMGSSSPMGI
Chain of huFcγRIIIA F158 (human) (P08637 17-208 limits assumed): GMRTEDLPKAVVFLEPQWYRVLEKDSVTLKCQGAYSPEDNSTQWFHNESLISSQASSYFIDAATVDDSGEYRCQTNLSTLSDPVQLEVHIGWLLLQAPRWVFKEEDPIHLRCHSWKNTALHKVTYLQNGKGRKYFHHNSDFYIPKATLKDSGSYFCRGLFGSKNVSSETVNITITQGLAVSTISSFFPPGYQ
Chain of human FcγRIIB (human) (P31994 43-217): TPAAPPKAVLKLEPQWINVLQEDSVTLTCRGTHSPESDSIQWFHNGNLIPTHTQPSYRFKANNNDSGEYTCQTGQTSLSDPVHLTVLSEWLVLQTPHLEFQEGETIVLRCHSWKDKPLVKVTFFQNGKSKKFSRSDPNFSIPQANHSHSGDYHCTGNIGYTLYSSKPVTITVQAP
Chain of recombinant mouse GITR (plate-bound) (mouse) (O35714 20-153 limits assumed): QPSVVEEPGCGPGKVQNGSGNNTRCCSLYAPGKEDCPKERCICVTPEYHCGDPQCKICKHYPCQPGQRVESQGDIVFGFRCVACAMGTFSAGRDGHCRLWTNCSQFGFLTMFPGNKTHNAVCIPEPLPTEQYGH
Chain of human FcγRIIIA soluble ectodomain (ELISA) (human) (P08637 17-208): as the sequence (P08637 17-208 limits assumed) above

| Kd (huFcγRIIA R131 (human)) [nM] | Kd (huFcγRIIIA F158 (human)) [nM] | EC50 (read off the curve) [1] [µg/mL] | Kd (human FcγRIIB (human) [3]) [nM] | Substance | also measured |
| --- | --- | --- | --- | --- | --- |
| 1160 | 580 | 0.02 |  | chimeric anti-mouse GITR antibody (DTA-1 Fab) afucosylated human IgG1 |  |
|  |  | 0.01 |  | chimeric anti-mouse GITR antibody (DTA-1 Fab) afucosylated human IgG1-G236A | EC50 (read off the curve) [2]: 0.8 µg/mL |
| 120 |  | 0.02 | 4380 | chimeric anti-mouse GITR antibody (DTA-1 Fab) human IgG1-G236A |  |
|  |  | 0.02 |  | chimeric anti-mouse GITR antibody (DTA-1 Fab) human IgG1-GAALIE |  |
| 50 | 2230 | 0.01 | 230 | chimeric anti-mouse GITR antibody (DTA-1 Fab) human IgG1-GASDALIE | Fold = KD(IgG1)/KD(Fc region variant) (huFcγRIIA R131 (human)): 24.5 fold; Fold = KD(IgG1)/KD(Fc region variant) (human FcγRIIB (human) [3]): 14 fold; EC50 (read off the curve) [4]: 0.2 µg/mL |
|  |  | 0.02 |  | chimeric anti-mouse GITR antibody (DTA-1 Fab) human IgG1-N297A |  |
| 3840 |  | 0.02 |  | chimeric anti-mouse GITR antibody (DTA-1 Fab) human IgG1-V11 | EC50 (read off the curve) (human FcγRIIB (human) [5]): 0.4 µg/mL |
| 1160 | 6700 | 0.03 | 3010 | chimeric anti-mouse GITR antibody (DTA-1 Fab) with human IgG1 | Fold = KD(IgG1)/KD(Fc region variant) (huFcγRIIA R131 (human)): 1 fold; Fold = KD(IgG1)/KD(Fc region variant) (huFcγRIIIA F158 (human)): 1 fold |
|  |  |  |  | monospecific mIgG1-N297A anti-mouse GITR antibody (DTA-1 NA) | OD450 [6]: 0.6 OD450; OD450 at plateau [7]: 0.9 OD450; EC50 (read off the curve) [8]: 0.004 µg/mL |
